Reference: patent publication US20250262297A1, “ALLERGY ANTIGEN AND EPITOPE THEREOF” (HOYU CO., LTD., priority 2017, published 2025)
Each block holds one molecule with its values, some of them ahead of it.

Test system: IgE antibodies from soybean-allergic patients
Assay: Immunoblotting of two-dimensional electrophoresis pattern of soybean proteins with patient serum
Type: binding, human
Conditions: spot in 2D electrophoresis gel of soybean proteins; patient serum compared with healthy subject serum
Excerpt: Transfer to membrane was done using the following transfer system and transfer buffer. • Transfer system: XCell SureLock Mini-Cell and XCell II Blot Module (produced by Life Technologies) • Transfer buffer: NuPAGE Transfer Buffer (X20) (produced by Life Technologies), used in a form diluted 20-fold with milliQ water.
To be specific, proteins in the two-dimensional electrophoresis gels were transferred to a membrane (PVDF membrane) according to the following procedure. • (1) The PVDF membrane was immersed in 100% methanol followed by milliQ water, and then moved into the transfer buffer to hydrophilize the PVDF membrane. • (2) After sponge, filter paper, the gels treated by second-dimensional SDS-PAGE, the hydrophilized PVDF membrane, filter paper, and sponge were put in place in this order, the transfer system was energized at a constant voltage of 30 V for one hour.
Immunoblotting of the membrane was carried out using, as a primary antibody, a serum sample from a patient with a soybean allergy or a serum sample from a healthy subject.
Immunoblotting of the membrane was carried out according to the following procedure. • (1) The transferred membrane was shaken in a 5% skim milk/PBST solution (a PBS buffer containing 0.3% Tween 20 nonionic surfactant) at room temperature for one hour. • (2) The membrane was left to stand in a solution of 3% primary antibody serum in 5% skim milk/PBST at room temperature for one hour. • (3) The membrane was washed with a PBST solution (5 min.×3 times). • (4) The membrane was left to stand in a 1:2500 dilution of the secondary antibody, anti-human IgE-HRP (horseradish peroxidase), with a 3% skim milk/PBST solution at room temperature for one hour. • (5) The membrane was washed with a PBST solution (5 min.×3 times). • (6) The membrane was left to stand in Pierce Western Blotting Substrate Plus (produced by Thermo Fisher Scientific) for 5 minutes.
The membrane obtained through the foregoing series of treatments was subjected to fluorescent image scanning on Typhoon 9400 (produced by GE).
The immunoblots obtained with the serum from the soybean-allergic patient were compared with those obtained with the control serum from the healthy subject.

B2: 14-3-3-like protein (protein)
chain: MAAAPSPREENVYMAKLAEQAERYEEMVEFMEKVSAAADNEELTVEERNLLSVAYKNVIGARRASWRIISSIEQKEESRGNEDHVSVIRDYRSKIESELSNICDGILKLLDSRLIPSASSGDSKVFYLKMKGDYHRYLAEFKTGAERKEAAESTLSAYKAAQDIANAELPPTHPIRLGLALNFSVFYYEILNSPDRACNLAKQAFDEAIAELDTLGEESYKDSTLIMQLLRDNLTLWTSDMQDDGADEIKEAAPKPDDQ
specific binding to IgE antibodies from soybean-allergic patients: specific binding

B4: superoxide dismutase [Fe], chloroplastic isoform X1 (protein)
chain: MASLGGLQNVSGINFLIKEKGCCMLQGPKVNAKFELKPPPYPLNGLEPVMSQQTLEFHWGKHHKTYVENLKKQVVGTELDGKSLEEIIVTSYNKGDILPAFNNAAQVWNHDFFWECMKPGGGGKPSGELLELIERDFGSFVKFLDEFKAAAATQFGSGWAWLAYRARKFDGENVANPPSPDEDNKLVVLKSPNAVNPLVWGGYYPLLTIDVWEHAYYLDFQNRRPDYISVFMDKLVSWDAVSSRLEQAKALITSA
modifications: Glycine max
notes: spot also identified as iron-superoxide dismutase
specific binding to IgE antibodies from soybean-allergic patients: specific binding

B5: 51 kDa seed maturation protein precursor (protein)
chain: MASKVVSVLVIAMMLFAMNCNCTSVGHMPSTKEEGHDFQESKAKTTQTANKAMETGKEGQEAAESWTEWAKEKLSEGLGFKHDQESKESTTNKVSDYATDTAQKSKDYATDTAQKSKDYAGDAAQKSKDYAGDAAQKTKDYASDTAQTSKDYAGDAAQKSKGYVGDAAQKTKEYVGDAAQKTKDYATDAAQKTKDYATQKTKDYASDATDAAKKTKDYAAQKTKDYASEASDVAQNTKDYAAQKTKDYASGGAQKTKDYASGGAQKTKDYASDAAQKTKDYASDGAQKSKEYAGDVALNAKDYAQKSKDYAGDAAQNVKDYASDAVQKRKEYSGDASHKSKEASDYASETAKKTKDYVGDAAQRSKGAAEYASDAAQRTKEYAGDATKRSKEASNDHANDMAQKTKDYASDTAQRTKEKLQDIASEAGQYSAEKAREMKDAAAEKASDIAKAAKQKSQEVKEKLGGQHRDAEL
modifications: Glycine max
notes: spot also identified as Lea protein precursor
specific binding to IgE antibodies from soybean-allergic patients: specific binding

Further lines, results first:

specific binding to IgE antibodies from soybean-allergic patients: specific binding
B1: probable fructokinase-4 (protein)
chain: MALNNGVPATGTGLIVSFGEMLIDFVPTVSGVSLAEAPGFLKAPGGAPANVAIAVSRLGGKAAFVGKLGDDEFGHMLAGILKENGVRADGINFDQGARTALAFVTLRADGEREFMFYRNPSADMLLKPEELNLELIRSAKVFHYGSISLIVEPCRSAHLKAMEVAKESGCLLSYDPNLRLPLWPSAEEARKQILSIWEKADLIKVSDAELEFLTGSDKIDDESALSLWHPNLKLLLVTLGEHGSRYYTKSFKGSVDAFHVNTVDTTGAGDSFVGALLAKIVDDQSILEDEPRLREVLKFANACGAITTTQKGAIPALPKEEAALKLIKGGS

specific binding to IgE antibodies from soybean-allergic patients: specific binding
B3: aconitate hydratase 1 (protein)
chain: MATENPFNSILTTLEKPGGAGEFGKYFSLPALNDRRIDRLPYSVRILLESAIRNCDEFQVKSNDVEKIIDWENTSPKLVEIPFKPARVLLQDFTGVPAVVDLACMRDAMNKLGGDSNKINPLVPVDLVIDHSVQVDVARSENAVQANMELEFQRNKERFGFLKWGSNAFNNMLVVPPGSGIVHQVNLEYLGRVVFNTNGVLYPDSVVGTDSHTTMIDGLGVAGWGVGGIEAEAAMLGQPMSMVLPGVVGFKLLGKLRDGVTATDLVLTVTQMLRKHGVVGKFVEFYGEGMSELSLADRATIANMSPEYGATMGFFPVDHVTLQYLRLTGRSDETVSMIESYLRANKMFVDYSEPQVERVYSSYLELNLEDVEPCVSGPKRPHDRVPLREMKVDWHACLNNKVGFKGFAVPKESQNKVAEFTFQGTPAHLRHGDVVIAAITSCTNTSNPSVMLGAALVAKKACELGLQVKPWIKTSLAPGSGVVTKYLQRSGLQKYLNELGFNIVGYGCTTCIGNSGDINEAVASAITENDIVAAAVLSGNRNFEGRVHPLTRANYLASPPLVVAYALAGTVDIDFDTEPIGIGKDGTKIFFRDIWPSSEEIANVVQSSVLPAMFRDTYNAITQGNPMWNNLSVPTGTLYAWDPTSTYIHEPPYFRDMSMSPPGSHGVKDAYCLLNFGDSITTDHISPAGSIHKDSPAARYLIERGVDRRDFNSYGSRRGNDEVMARGTFANIRIVNKFLNGEVGPKTIHIPSGEKLSVFDAAEKYKSEGHDMIILAGAEYGSGSSRDWAAKGPMLLGVKAVIAKSFERIHRSNLVGMGIIPLCFKPGDDADSLGLTGHERYTIDLPSNVNEIRPGQDVTVVTDAGKSFVSTLRFDTEVELAYFNHGGILQYVIRNMVNAKH
modifications: Glycine max

specific binding to IgE antibodies from soybean-allergic patients: specific binding
B6: alpha-1,4 glucan phosphorylase L isozyme, chloroplastic/amyloplastic (protein)
chain: MASSSTTMRFSAASTGAAAALPRRSSVAGFIGVAARSSAKSRLRFIGRNANLSLRMRRMSSFSVVKCVSGSEAKVQDTVAKQQEATTSLSSFTPDASSIASSIKYHAEFTPLFSPENFDLPQAFLATAQSVRDSLIINWNATYDYYEKLNVKQAYYLSMEFLQGRALLNAIGNLELTGPYAEALSKLGHKLENVAYQEPDAALGNGGLGRLASCFLDSLATLNYPAWGYGLRYKYGLFKQRITKDGQEEVAEDWLEMGNPWEIIRNDVSYPVKFYGKVVSGSDGKKHWIGGEDIKAVAHDVPIPGYKTKTTINLRLWSTKAASEEFDLSAFNAGRHTEASEALANAEKICYILYPGDEPIEGKILRLKQQYTLCSASLQDIIARFERRSGANVNWEEFPEKVAVQMNDTHPTLCIPELMRILIDVKGLNWKDAWNITQRTVAYTNHTVLPEALEKWSLDLMQKLLPRHIEIIEMIDEELVRTIIAEYGTENSDLLEKKLKEMRILENVELTAEFADILVKSKEAIDIPSEELQSSEQAEAEDEKDDDEVEAVAKKNGTDESSIEDEKEELPEPVPEPPKLVRMANLCVVGGHAVNGVAEIHSEIVKDDVFNAFYKLWPEKFQNKTNGVTPRRWIRFCNPDLSKIITEWIGTEDWVLNTGKLAELRKFVDNEDLQVQWREAKRSNKVKVAAFIREKTGYSVSPDAMFDIQVKRIHEYKRQLMNIFGIVYRYKKMKEMSAAEREANFVPRVCIFGGKAFATYVQAKRIVKFITDVGATVNHDPEIGDLLKVVFVPDYNVSVAEMLIPASELSQHISTAGMEASGTSNMKFAMNGCILIGTLDGANVEIREEVGADNFFLFGAKAHEIAGLRKERAEGKFVPDPRFEEVKEFVRSGIFGSYNYDELMGSLEGNEGFGRADYFLVGKDFPSYIECQEKVDEAYRDQTKWTRMSILNTAGSYKFSSDRTIHEYAREIWNIEPVQLP

specific binding to IgE antibodies from soybean-allergic patients: specific binding
B7: triosephosphate isomerase isoform X1 (protein)
chain: MGRKFFVGGNWKCNGTTEEVKKIVTTLNEAKVPGEDVVEVVVSPPFVFLPFVKSLLRPDFHVSAQNCWVRKGGAYTGEVSAEMLVNLGIPWVIIGHSERRQLLNESNEFVGDKVAYALQQGLKVIACIGETLEQREAGTTTAVVAEQTKAIAAKISNWDNVVLAYEPVWAIGTGKVATPAQAQEVHADLRKWVHDNVSAEVAASVRIIYGGSVNGGNCKELAAQPDVDGFLVGGASLKAEFVDIINAATVKKN
modifications: Glycine max
notes: spot also identified as triosephosphate isomerase, cytosolic
